Measured values from the supplement of paper PMC9170038.

Tested on: K4 kissing-loop RNA reporter
Test: apparent KD of K4 kissing-loop reporter; higher = weaker reporter binding
Conditions: Eterna round: R107
Procedure: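 RNA-MaP round R107: designed RNA switches with theophylline, tryptophan, arginine or FMN aptamers are transcribed on-chip within common flanks. They are titrated with a labelled K4 kissing-loop RNA reporter in RNA-MaP buffer (100 mM Tris pH 7.5, 80 mM KCl, 4 mM MgCl2), without ligand or with the indicated ligand. Median apparent KD per design.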

[1] = input ligand: theophylline 20 uM
[2] = input ligand: tryptophan 2.4 mM
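Note: bound reporter read as fluorescence of individual clusters on recovered sequencing chips by microscopy, with normalized cluster intensities fitted with a binding model.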

Sequence	apparent KD of K4 kissing-loop reporter (input ligand: FMN 200 uM) [nM]	apparent KD of K4 kissing-loop reporter (input ligand: arginine 13.2 mM) [nM]	apparent KD of K4 kissing-loop reporter (input ligand: none) [nM]	apparent KD of K4 kissing-loop reporter [1] [nM]	apparent KD of K4 kissing-loop reporter [2] [nM]
UGAUAGCCAGUGAUGUUGGCAUAUACUGAAGGAGCGCGUGAAAACGCAGGUAGGUCGCAGUUCCUUGCCAAUUGAUCGAAAGAUC [#08 K4 Arginine A Exclusion]	162	200	183	207	162
UGUAUGUGUCAGCGAGUGAUGUUCGACGAUACCAGACUCGAUAGAGUCCCUUGGCAGCGUAAUGCAUGCCAACUGGCACAUACUA [#SwitchBubble 12 #K4Early]	745	651	837	608	597
UAAUAAAUUCCAGCGAUAUCGCUCUUCGAAGGAGCGGACGAAAGUCCAGGUAGGUCGCGAAGAGUGAUGUUCUUUGCGGCGCUGG [Omei KL Arginine A Exc A v4]	207	180	262	320	226
UGAUACCAGACGGCCGCCACUUCUGCAAGUCAAAGACUUGCUAAGGGAAUCGUCCAGUGAUGUUGGAGGACCGGGUCUGGUAUCU [FiskerMod 2 - Jieux - Exclusion - Tryptophan B]	1050	823	1200	999	1050
CCGGGCGGCUGAAGGAGCGGGCGGGCCCGAGUGAUGUUCGGGUGGACCGUGAGGUCCGGUGCCCAGGUAGGUCGCGGUUCCGCCC [#2 Same State - Arginine B Attempt #8 (HarryS)]	247	183	162	296	238
UUCUUGAUGGAAACAUCGAGGAUUACUGAUACCAGUAUCGAUAGAUACCCUUGGCAGCAGAAUCAGUGAUCACGAGUGAUGUUCG [Ex Theophylline A K4 10]	655	551	733	564	569
CGUAGCAGACGAAGGAGCGGCUACCUGAAUCAGGGUGAUGCCUGAGUGAUGUUCAGGUAAAGCCAGGUAGGUCGCGUCUGCUACG [Arg B Ex t9a]	201	203	232	235	210
UAUAUAUGAUGUGAUACCAGUGAAGAGCCAGUGAUGUUGGUAGAACUGGUAUAUAAAUAACACCCUUGGCAGCACAAUCACGUAU [whbob_Ex_Theo_B_sa97]	160	152	170	212	164
GUGCAAAGCACCGGCACGAGCAGCCUAAAGGAGGAUAUGACGAAAGUCAGAAGGCCUAGUGAUGUUAGGCCUUGCUUGAGUCGAA [Omei KL FMN A Exc B v1]	131	137	169	183	151
UGGCGAGUGAUGUUCGUUGUUGUUGUGUGUCGAGGACCGGUACGGCCGCCACUCGAGUUGGUUGUUGUUGUUGCUGUUGUUGCUG [#04 K4 Tryptophan A Same State]	158	124	155	130	87.6
UAAUUUAUCGCAGGAUAUAGCCAUAAACCGGUCCUAAGGGACCUUCUGGGCAGUGAUGUUGCCCGGCUAGAAGGGCGAGUUCACC [Anenlagema]	115	105	116	103	105
GCGCGGGAGUGAUGUUCCAAGUGGUGUUAACGAGGACCGGUACGGCCGCCACUCGAUACGGCCGGGCCGUAGGAUAAACUGGCGC [Same State - Tryptophan A (Freestyle 14)]	405	376	441	318	408
UUCGGAUAAGUCCUUCCGAAGAAGCCGGAAGGAGCGACUCAAUAGUCAGGUAGGUCGCCGGCAAGCGUAGUGAUGUUAUGCUCAC [Arg A SS t6]	966	598	882	713	740
UUAUCAUCAGCGGCCGCCACUGCAAAUUGGAGUGAUGUUCCAAGCGUGGAUAUUGAAAUUACUAGUAGGACCGGGUUGAUGAAUU [AK 2 Ex Trypt B]	158	132	158	105	159
UGACUGGAUGGAAGGAGCGCUAAACUCCUAGUGAUGUUAGGGAUAUGAGGCAAAGCCUCGAGGCAGGUAGGUCGCCAUCUAGUCU [FiskerMod 19 - Jieux - Same State - Arginine B]	138	114	135	142	122
AUUCUAUUGUGAAGGAGCGCGACUAGUAGUGAUGUUACUAUAUGACUUUAGUCUUAAUUCUCGCAGGUAGGUCGCACAAUAUAUA [JR_Nu_SSArginiB_Sub028]	913	594	796	732	755
CGACACUCAGCGGCCGCCACUGAGCUAUAUUUUGCAGGUGCCCGAGUAAGUGAUGUUUACUUCGUCAGGACCGGGCUGGUUUCAA [theeternabot_sameState_KL_Trp_B_20]	514	298	609	294	351
AAACUUGCAGUGAUGUUGCAAGUAGGUGAUACCAGCAUCGAAAGAUGCCCUUGGCAGCACCAAAACAUCACUUAGGUAUCACCAA [(H1)-(H2)-(T1)-(T2)-(H)'-(T)'_Design3]	191	192	210	234	175
ACGACGGCAGCUCAGUGAUGUUGGGCAUUACGAGGACCGGUACGGCCGCCACUCGCUGCUUUGAUCCGUGGAUGAACCUCAGCAU [theeternabot_sameState_KL_Trp_A_13]	576	464	601	734	402
UGUACCGAAUCAGGAUAUGUCGUCGAAAGACGAAAUGGAGUGAUGUUCCUUAAACUGCGAAAGCAGACAGAAGGGAUUUGGUACU [FmnBS 29 A9+U77]	161	386	470	403	385
ACGGAUUCGAAUACCGAAUGAAAUAGGGAUACCAGCACGUGAACGUGCCCUUGGCAGCCCAGCCCAGUGAUGUUGGGCCCAUGGC [Biso]	173	185	179	212	204
UGAUAGGACAGAAGGAGCGGUAGUGAUGUUACCAAAAGGUUAAGGUGUCAAAAGACACCCUGCCAGGUAGGUCGCUGUCCUAUCU	117	98	106	89.9	83.4
